Measurements from article PMC6787021.

What was measured:
[1] = target: TbMscL A85C, spin-labeled with MTSSL (Mycobacterium tuberculosis) (UniProt P9WJN5); assay: SEC
[2] = target: TbMscL K100R1-L89W (Mycobacterium tuberculosis) (UniProt P9WJN5); assay: SEC
[3] = target: TbMscL F84C, spin-labeled with MTSSL (Mycobacterium tuberculosis) (UniProt P9WJN5); assay: SEC
[4] = target: TbMscL R98C, spin-labeled with MTSSL (Mycobacterium tuberculosis) (UniProt P9WJN5); assay: SEC
[5] = target: TbMscL F34C, spin-labeled with MTSSL (Mycobacterium tuberculosis) (UniProt P9WJN5); assay: SEC
[6] = target: TbMscL F88C, spin-labeled with MTSSL (Mycobacterium tuberculosis) (UniProt P9WJN5); assay: SEC
[7] = target: TbMscL E102C, spin-labeled with MTSSL (Mycobacterium tuberculosis) (UniProt P9WJN5); assay: SEC
[8] = target: TbMscL E102C, spin-labeled with MTSSL (Mycobacterium tuberculosis) (UniProt P9WJN5); assay: SEC; samples thawed after PELDOR measurements and run over SEC
[9] = target: TbMscL F5C, spin-labeled with MTSSL (Mycobacterium tuberculosis) (UniProt P9WJN5); assay: SEC
[10] = target: TbMscL K100R1-F88W (Mycobacterium tuberculosis) (UniProt P9WJN5); assay: SEC
[11] = target: TbMscL L73R1-L89W (Mycobacterium tuberculosis) (UniProt P9WJN5); assay: SEC
[12] = target: TbMscL F79C, spin-labeled with MTSSL (Mycobacterium tuberculosis) (UniProt P9WJN5); assay: SEC
[13] = target: TbMscL L72C, spin-labeled with MTSSL (Mycobacterium tuberculosis) (UniProt P9WJN5); assay: SEC
[14] = target: TbMscL N70C, spin-labeled with MTSSL (Mycobacterium tuberculosis) (UniProt P9WJN5); assay: SEC
[15] = target: TbMscL L42C, spin-labeled with MTSSL (Mycobacterium tuberculosis) (UniProt P9WJN5); assay: SEC
[16] = target: TbMscL L72R1-L89W (Mycobacterium tuberculosis) (UniProt P9WJN5); assay: SEC
[17] = target: TbMscL L72R1-L89W (Mycobacterium tuberculosis) (UniProt P9WJN5); assay: SEC; samples thawed after PELDOR measurements and run over SEC
[18] = target: TbMscL N70R1-L89W (Mycobacterium tuberculosis) (UniProt P9WJN5); assay: SEC
[19] = target: TbMscL K100C, spin-labeled with MTSSL (Mycobacterium tuberculosis) (UniProt P9WJN5); assay: SEC
[20] = target: TbMscL L2C, spin-labeled with MTSSL (Mycobacterium tuberculosis) (UniProt P9WJN5); assay: SEC
[21] = target: TbMscL L73C, spin-labeled with MTSSL (Mycobacterium tuberculosis) (UniProt P9WJN5); assay: SEC
[22] = target: TbMscL Y87C, spin-labeled with MTSSL (Mycobacterium tuberculosis) (UniProt P9WJN5); assay: SEC
[23] = target: TbMscL K99C, spin-labeled with MTSSL (Mycobacterium tuberculosis) (UniProt P9WJN5); assay: SEC
[24] = target: TbMscL V112C, spin-labeled with MTSSL (Mycobacterium tuberculosis) (UniProt P9WJN5); assay: SEC
[25] = target: TbMscL V48C, spin-labeled with MTSSL (Mycobacterium tuberculosis) (UniProt P9WJN5); assay: SEC
[26] = target: TbMscL L89C, spin-labeled with MTSSL (Mycobacterium tuberculosis) (UniProt P9WJN5); assay: SEC
[27] = target: TbMscL I23C, spin-labeled with MTSSL (Mycobacterium tuberculosis) (UniProt P9WJN5); assay: SEC

TbMscL A85C, spin-labeled with MTSSL (from UniProt P9WJN5 1-151) (natural protein)
stoichiometry N [1]: 5

TbMscL K100R1-L89W (from UniProt P9WJN5 1-151) (natural protein)
stoichiometry N [2]: 5

TbMscL F84C, spin-labeled with MTSSL (from UniProt P9WJN5 1-151) (natural protein)
stoichiometry N [3]: 5

TbMscL R98C, spin-labeled with MTSSL (from UniProt P9WJN5 1-151) (natural protein)
stoichiometry N [4]: 5

TbMscL F34C, spin-labeled with MTSSL (from UniProt P9WJN5 1-151) (natural protein)
stoichiometry N [5]: 5

TbMscL F88C, spin-labeled with MTSSL (from UniProt P9WJN5 1-151) (natural protein)
stoichiometry N [6]: 5

TbMscL E102C, spin-labeled with MTSSL (from UniProt P9WJN5 1-151) (natural protein)
stoichiometry N [7]: 5 | stoichiometry N [8]: 5

TbMscL F5C, spin-labeled with MTSSL (from UniProt P9WJN5 1-151) (natural protein)
stoichiometry N [9]: 5

TbMscL K100R1-F88W (from UniProt P9WJN5 1-151) (natural protein)
stoichiometry N [10]: 5

TbMscL L73R1-L89W (from UniProt P9WJN5 1-151) (natural protein)
stoichiometry N [11]: 5

TbMscL F79C, spin-labeled with MTSSL (from UniProt P9WJN5 1-151) (natural protein)
stoichiometry N [12]: 5

TbMscL L72C, spin-labeled with MTSSL (from UniProt P9WJN5 1-151) (natural protein)
stoichiometry N [13]: 5

TbMscL N70C, spin-labeled with MTSSL (from UniProt P9WJN5 1-151) (natural protein)
stoichiometry N [14]: 5

TbMscL L42C, spin-labeled with MTSSL (from UniProt P9WJN5 1-151) (natural protein)
stoichiometry N [15]: 5

TbMscL L72R1-L89W (from UniProt P9WJN5 1-151) (natural protein)
stoichiometry N [16]: 5 | stoichiometry N [17]: 5

TbMscL N70R1-L89W (from UniProt P9WJN5 1-151) (natural protein)
stoichiometry N [18]: 5

TbMscL K100C, spin-labeled with MTSSL (from UniProt P9WJN5 1-151) (natural protein)
stoichiometry N [19]: 5

TbMscL L2C, spin-labeled with MTSSL (from UniProt P9WJN5 1-151) (natural protein)
stoichiometry N [20]: 5

TbMscL L73C, spin-labeled with MTSSL (from UniProt P9WJN5 1-151) (natural protein)
stoichiometry N [21]: 5

TbMscL Y87C, spin-labeled with MTSSL (from UniProt P9WJN5 1-151) (natural protein)
stoichiometry N [22]: 5

TbMscL K99C, spin-labeled with MTSSL (from UniProt P9WJN5 1-151) (natural protein)
stoichiometry N [23]: 5

TbMscL V112C, spin-labeled with MTSSL (from UniProt P9WJN5 1-151) (natural protein)
stoichiometry N [24]: 5

TbMscL V48C, spin-labeled with MTSSL (from UniProt P9WJN5 1-151) (natural protein)
stoichiometry N [25]: 5

TbMscL L89C, spin-labeled with MTSSL (from UniProt P9WJN5 1-151) (natural protein)
stoichiometry N [26]: 5

TbMscL I23C, spin-labeled with MTSSL (from UniProt P9WJN5 1-151) (natural protein)
stoichiometry N [27]: 5
